For 2 molecules, EC50 results are on record in article PMC8993412.

By EC50 is commonly meant the midpoint of the concentration-response curve.

The target in test [1] is SARS-CoV-2 Nsp15 (recombinant) (SARS-CoV-2) (UniProt P0DTD1). The experiment in a line: ELISA. A general note: ELISA stands for enzyme-linked immunosorbent assay.
For test [2], the target named is SARS-CoV-2 Nsp7 (recombinant) (SARS-CoV-2) (UniProt P0DTD1). The experiment in a line: ELISA.

B1: IgG 16684 (anti-Nsp15) (antibody, V domains shown)
VH: EVQLVESGGGLVQPGGSLRLSCAASGFNFSSSSIHWVRQAPGKGLEWVASIYSSYGYTYYADSVKGRFTISADTSKNTAYLQMNSLRAEDTAVYYCARVSYYYPYSWYFYGYYGGLDYWGQGTLVTVSS
VL: DIQMTQSPSSLSASVGDRVTITCRASQSVSSAVAWYQQKPGKAPKLLIYSASSLYSGVPSRFSGSRSGTDFTLTISSLQPEDFATYYCQQSSYSLITFGQGTKVEIK
As to B1, the EC50 in test [1] is 19 nM.

B2: IgG 16658 (anti-Nsp7) (antibody, V domains shown)
VH: EVQLVESGGGLVQPGGSLRLSCAASGFNLSYYSIHWVRQAPGKGLEWVASIYPYYSYTYYADSVKGRFTISADTSKNTAYLQMNSLRAEDTAVYYCARVGFDYWGQGTLVTVSS
VL: DIQMTQSPSSLSASVGDRVTITCRASQSVSSAVAWYQQKPGKAPKLLIYSASSLYSGVPSRFSGSRSGTDFTLTISSLQPEDFATYYCQQYAGLITFGQGTKVEIK
In the case of B2, the EC50 in test [2] stood at 130 nM.
